# The RNAGym collection of RNA variant scans (doi:10.1073/pnas.2313332121)
# B1: TPR t1 (parent)
# chain: GACCAAUCUGCCCUCAGAGCUCGAGAACAUCUUCGGAUGCAGAGGAGGCAGGCUUCGGUGGCGCGAUAGCGCCAACGUCCUCAACCUCCAAUGCAUCCCACCACAUGAUGAUGCCUGAAGAGCCUUGGUUUUUUG
# Variants of: B1
# Assay: polymerase ribozyme fitness, log enrichment relative to wild type (log ratio); higher = more active; in vitro selection for triplet polymerase activity
# Procedure, shortened: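 Mutant libraries were PCR-built and transcribed for each subunit of a heterodimeric triplet polymerase ribozyme and selected for one round in triplicate at −7 °C, frozen, before gel excision of extended constructs and streptavidin-bead capture. Input and output libraries were Illumina-sequenced, keeping genotypes with ≥10 input reads and ≥1 read per output. Fitness is a logarithmic ratio of genotype to wild-type enrichment, in base 2, using inverse-variance-weighted replicate averages.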
row,Variant,polymerase ribozyme fitness (log ratio)
1,G47A C115A,-1.2
2,C56U A95C C98U,-1.83
3,C8G C13U G47C A74G,-0.735
4,C64U A84U U87A,-1.17
5,A29G C34A,-4.34
6,C70U C94U U112A,0.254
7,A46U C64U C114U,-2.92
8,C8G G36U G47A C72G U92G C115A,-6.07
9,G69U U78C C88U,0.314
10,A46U C53U A91U G113U U130A,-4.7
11,C56U C72A C89A,-2.41
12,G10U C13G,0.0488
13,C11U U78A U87A C99U C115A,-4.73
14,C4G C8G U81A A111C,-2.27
15,U7G G93U G113A,-1.85
16,U9G U14C U38G G61U C72U A91U C124U,-3.69
17,C8U G128A,-1.25
18,A27U U54C G61U G107C U109C G110C,-7.69
19,U30A G39C,-5.36
20,C13A C102A,-3.7
21,A2C C56A G63A,-4.79
22,A18G A37G A66U C94U G113C G117A,-4.01
23,C12U G42U C49G U96C,-2.37
24,C98U A111C,-2.13

row,Variant,polymerase ribozyme fitness (log ratio)
1,C12U G44A C88U U92G U112A U116G G135A,-5.19
2,G58C C85U G120A,0.436
3,G48C C70U C124A,0.758
4,C13G G57U,-1.94
5,G45C C70U,-1.4
6,A24U G110A,-6.09
7,C15A C97A G120A U130A,-4.97
8,A6U A90U,-0.93
9,U7G G52U,-0.337
10,C11G C12G C56A A118G,-0.95
11,C53U C62A G93C C104U,-1.76
12,A111C G128A,-1.07
13,G51U U109A G128U,-5.92
14,C49U C73U A74U,-0.941
15,C53G C70G U81C C94G A121C,-7.53
16,C22U G93A,-3.97
17,U7G,0.469
18,C114A G127U,-3.82
19,A16G G48C G60A,-1.87
20,C73G C89A C99A G110C,-6.57
21,G17C G48U G60A C89G C102A C114A,-6.76
22,A27C G35U C64U C80U U109A,-7.59
23,C3U C62A C115A U125G,-1.86
24,C8G C70U C115U,-2.38

row,Variant,polymerase ribozyme fitness (log ratio)
1,A6U G10A,0.406
2,G44A G122A G127C,-2.85
3,A50C G63U U81G G128C,-4.28
4,C12G C102U,-1.38
5,U9A C20G U116C,-2.71
6,C8A C20G G61A,-4.4
7,U78C C98U U112A U130A,-3.27
8,C11U G61C,-1.64
9,C40U G52A C53U C124A,0.594
10,U87C U116A A121G,1.1
11,C56A C79G U87A,-1.58
12,C11G G39A,0.759
13,C11U G57A G58U G63U G77U C82G U106A,-3.25
14,C53A G63C,-2.92
15,A27C C40G,-4.98
16,C20G U32C G48C G120A U130A,-5.95
17,G19A U116G,-6.24
18,C13U A26U C40A U112A,-4.39
19,A50U G69U C80G C98U G113A,-3.31
20,U38G C62U C86U C115A,-2.04
21,U7G C12U C20A C72U,-1.43
22,G60U U112C,1
23,C8A C53G C70U C97U U112A C124U,0.47
24,A18C G71A C88U G93C,-4.58

row,Variant,polymerase ribozyme fitness (log ratio)
1,C76G G93A C115G,-4.44
2,C72A C76G C101A C115A,-1.47
3,C11U G51C C85U,-4.53
4,A50C C62U C115U,-2.55
5,U7G G35C U130G,-4.31
6,A24G G57A,-2.62
7,C72U G110C G128U,-6.47
8,G48A C56G G93U,-2.28
9,C114A C123U G128U,-4.41
10,C13G A111G C115U,-4.46
11,C115G A119G,1.52
12,C79A C82G U112A,-1.75
13,C13U G45A G60C,-0.761
14,G10C G71U,-1.91
15,U7A C72U A91C G122U,-2.12
16,U7A C49U G71U,-0.851
17,C4G C11A A16G A37U G69A G77C G113U C124U,-4.9
18,U7C C40G A95U C102A,-5.2
19,C12A C15A U132A,-3.86
20,C82G C102A U112A G120C U125G,-4.33
21,G10C G17U G63A,-4.45
22,A26U C34A G63C U112G G128C,-7.83
23,C49A U78A U87G U130A,-1.01
24,G69U C79U A111G U129C U133A,-0.673

row,Variant,polymerase ribozyme fitness (log ratio)
1,U9A G45U,-2.23
2,C53U G61C U106G C124G G135A,-0.0167
3,G63C C80A,-3.71
4,G61C U78C,-2
5,C56U C123A,0.593
6,A46U U54G C82A G110U,-3.02
7,C12G U78G C102U,-1.99
8,C22U G71C,-4.89
9,A6C C12A A84G U92C U106G G113C,-5.99
10,A16C G77U A119G,0.8
11,C72G A121U,0.731
12,C40A G45U G63A G69C C82A C86G C101U C114G,-6.64
13,U55G G69A,-1.67
14,G42C A74U U96G C124U,-1.27
15,C3U G48U,-0.574
16,C12A C56U C94G,-2.21
17,A18G G122A,-3.35
18,C8A C70U,-0.452
19,C13G U125A,-1.62
20,C34A U112G U130A U133A,-3.74
21,G71C U81A U109A,-6.73
22,C4U C102U C124U,-0.637
23,C12U C20U U21A G25U A43U C56A C115A A121U U130A,-8.29
24,A18G G93C,-3.75

row,Variant,polymerase ribozyme fitness (log ratio)
1,C49A C56U A121U,1.74
2,A16U A37G,-2.1
3,G39U G48A C70U,-1.15
4,A6C U7C,-0.0861
5,A41U U87C A90U A91C,-1.28
6,C15U C64A C79A C98A G117U,-6.93
7,A37G G52C A100C C104U,-2.8
8,C12U C72U A83U C99U,-3.62
9,C49G A68G G77U,-4.38
10,C89G C102A C114A,-5.12
11,C40U A43G U130A,-3.26
12,G39U C73A,-0.759
13,C40A U129C,-1.74
14,C13G A41G G48U U78G A91C,-5.06
15,C11U A27U C72U U78G A121U,-0.173
16,C62U C104U,0.0133
17,C8U U59A G60C G117U U131C,-0.987
18,U9C C13U A37C G39U G93A,-5.35
19,A2U A5U C8A C79G C115G,-5.43
20,C31U A37G,-3.78
21,C12U A41U A46C G48A C72U C88A C102U C114G C115U,-8.1
22,C3G A119G,-0.446
23,C40G G44C A74U,-1.5
24,U21C A121C,1.32

row,Variant,polymerase ribozyme fitness (log ratio)
1,C8G A50U G61U,0.00345
2,C3U G44A,-1.11
3,G17C U78C C89A U96A,-4.94
4,G48C G60U A105C U116C,-5.8
5,G42C U106A C115U G120U,-4.34
6,A18G G69U U81C G107U,-3.65
7,G17U C56G,-3.08
8,C3U C89U,-0.863
9,U112C G128U,-0.242
10,U9A G44U C123A,0.274
11,C64U C76G C85A,-3.38
12,C70A G77A C97A A121U,-5.66
13,C53A G57U G93C C97U,-0.989
14,C3A C123U,-1.48
15,U38A C40U,-1.9
16,A2U A16U C72G C86U,-4.45
17,C88G A95C,-4.58
18,C64G A66G G69C C82A A105U,-3.01
19,C56A C94A,-1.2
20,U78A G128A,-1.76
21,G93C G128C,-2.25
22,A75G G117A,-1.28
23,G69U C102G A119G,-2.01
